Measured values: the DeepSol protein solubility set

Assay: soluble on expression in E. coli; label from the status in PepcDB or PDB records

Sequence	soluble on expression in E. coli
MADETIAIVDADATAETRSLLSYLDGVRGEGILFGHQHTTSFGLTTGPTDGTTSDVKNVTGDFPAVFGWDTLIIEGNERPGLAENTRDENIALFADYIRKADAIGGVNTVSAHVENFVTGGSFYDTSGDTLRAVLPGGSHHAELVAYLDDIAELADASRRDDGTLIPIVFRPWHENAGSWFWWGAAYGSPGEYQELYRFTVEYLRDVKGVSNFLYAWGPGGGFGGNRDVYLRTYPGDAFVDVLGLDTYDSTGSDAFLAGLVADLRMIAEIADEKGKVSAFTEFGVSGGVGTNGSSPAQWFTKVLAAIKADPVASRNAYMETWRNADAGQHFVPVPGDALLEDFQAYAADPFTLFASEVTGAFDRTVAAAPAQPVVHIASPADGARVASAPTTVRVRVGGTDVQSVTVEVAQGGTVVDTLDLAYDGALWWTAPWSPTSAQLDNSTYTVTATATTAAGTLDVTNEVAAALEHHHHHH	soluble
MDGFGSHPRTLAVDQWMDIVNGKGYGVGGTTQVYSTRPDSPKFQPSIPPPPGSTSKTRTTATPWRLIDAETKRKKRIATYKTYALEGKVKSTVKKGFHWIKDRYSHIIHG	soluble
MGSDKIHHHHHHMLNSLSIFEQAIRALPIDRSLTRQDLFIDGFLLQQEQELSVYYSPIGEYINRSAKIVFIGITPGFEQMRLAYEEAADAFHHGATIEETSKLVKYSASFAGPMRRNLTAMLDELELHRLLNIASTATLFHTNQELLHTTSILRHPVFYRDKNYTGHQPKIDRTPLLQHYAYEHFAAELNQLPDPVILVPFGRVVESTVRTLLHQGRIKKHTVLFGFPHPSGANGHRKRQFEENKDYLMKQLNSYFNT	not soluble
MSLSASFTGAGFFKGGKTLDFSKLSYLSNSFMSLPSTVRNKQASQTAKNKSMIEFIEKIQSKNIVVRQEERGIVISLAADAFFDSASADVKLEENRDSIQKIASFIGFLSPRGYNFKIEGHTDNIDTDVNGPWKSNWELSAARSVNMLEHILNYLDQSDVKRIENNFEVSGFGGSRPIATDDTPEGRAYNRRIDILITTDASLSFPKEGHHHHHH	soluble
MPTTPRSQPGTVGKDMAGALAGRHNDMPPISSNYQGRPGNANPNYRYQPSADNARNVADWTKSHMKTARENAAAKR	not soluble
GETLDGEAALQAAIARLAAGDIVAIKGIGGFHLACDAGNPAAVATLRARKHRPAKPLAVMLPTATGLPAAAAALMGSPAAPIVLIAKAQVSGLCDEIAPGLAEVGVMLPSNPLQHLLLQGLARPIVMTSGNLSGRPPALSNAQALNELADIADGFLLHNRDIVQRMDDSLVRSSGEMLRRARGYVPDALPL	not soluble
GPGSMAHCCFLIYPLAKVADESFLQLLFDDSVKRSAFLGYPPRRFAIVELEESQNEAVLRAIGARDDDGRVEAREDNADTPFVDLFTRTGAKKGTDRNEPIGLRMGCIPHLSQVRFRRTYLRVIVSPVTIDELFGCVQKDSNHVKKEKRSLKRSRHTDEDAGPWVPRWPVANGDPTLAGRVEVVSMTGASRAGLSGDPEDERYREPYAECSGGPVCNMSPPKTFLSDDSAGDAAGRRALDVSVQNLIRELGFDK	not soluble
MADEEDPCGGGKKNPRKRCQPDVDPEEDSEPDLDGPQPPFRGRSSTVTDAVRQTAMEFRKRARSDEFRPAQQPEQSVVAVKPPTTSAPVTPFPANLPVSEQLEDLSLLPGVRRVRPLPRSRYPVANDPFDKFSAYSGPGSSQQAVPRTISKISEESGSGSGSGSGNDSSGSSGPTRMSGQVPSTSGPPPPRPPPAGHQNPFLGNQPSTSNTSEPSTSTQGVSPSRTSKISKKKAHQAGLHSKGSSEDSTDSGESKPSSKQPPKKSPKSNKNDPNAPGPSRRRDDDDDGVQGGSSEGSSESL	soluble
MDQALYSLETRFEQFQRYEQIFGFLFDLKKLQSASDDSLMASCTNLKDALTHGTHSDILASDLFYELKILREALPKEVRRPIEVLDFLQKVEGCYPNSWIAYQVLLTIPVSVASAERSFSKLKLIKSYLRSSMSQERLSDLAILSIERALVREVDFERLANDFVGKKGRRITL	soluble
MGSDKIHHHHHHMTTSATKEALFSPDCLEFLAKLASNNERDWFKAHQAEYEAKVRTPALNFIGAMAPHIQQLSPRLTAVPKKVGGSLMRPQRDARFSSDKTPYKVNVGIQFRHFQGKDVHAPGLYLHIANDGCFLGAGIWHPDSKALSQIRSCIDDNPNAYKQALKQLSAAGFAMEGDSLQRPPKGYDKHHPMLDELKRKDFIAIKPLDTQQLFTKDFDTWCAEQFNQVNKLMGYLCFALDLDY	not soluble
LGNEDFNSVIQQMAQGRQIEYIDIERPSTGGLGFSVVALRSQNLGKVDIFVKDVQPGSVADRDQRLKENDQILAINHTPLDQNISHQQAIALLQQTTGSLRLIVAREPVHTKSST	soluble
MLPLIRKMKPTDAAALTIINKEQLGYEVPVDVTCKQIEKLLLASDREFLYVYEETKTGKILGYVHAQLYETIYSQTLLNVLGLAVAKEAEGRGIGKQLMTKLETEAKKCNLSAIRLNSGEQRTAAHQFYEHIGYVSDKKQKRFIKYLDT	not soluble
MGSDKIHHHHHHMRSTDRLLFIDFLLKFENKNGTVIPCCVDNFDCTFTHKGGKSMYEKERKELYNAHLLLEKYGLVAYTSGNVSVRIGDHVLIKPSGVPYTELKPEDFVVVDLEGNVIEGEKKPSVDTATHLYLYKHLDWAKSVIHTHSTFAMVWAILEKSIPVLCTAHADVFGEEIPLTEYAPVGSEAIGKAVVKVIGKSGAVLLRKHGVMIVGTSVDDAVKKAIFLEEVAKAAYFATLAGKPTPLPPDEVDHLYNQYHTKYGQK	not soluble
MSLKPEKPSDTELVFISNAETIRDYLLRLSVDELKLLAKYILQNVYIVFVQTDDFASSFRLFNVLNSRGLPLSNADLLKNALFESASTHNKKSEQIESAWSQIEDMVGVRRLDKFLTLHKLSEKKDRDRVLQKGFEAFIENLQQQFDGDAIAMSLMLVNSAKNYTKILENDFEHPSIRRKIASLSNLGVDEWIPPVMAFMNRMARTEDFNLDDFSQFITAFEKVYMHGWLKKQIKSQREMVCYSALVAINNDMPFDSVINQINQHADNSGFIAALDEDLYEPRPNQVNLIKAILLRLDMEQQDESVIKTYTGRITIEHILPQALVNEYWINRFQPQEHVYWLHKIGNLTLISGSKNSEAQHYDFIKKKSIYEKLNSKSSFDLTKDVCNSSEWGLAELKMRHEKMKTQLKKLWLVEGHHHHHH	not soluble
NLQPLETTITDVERFKDTVTLELSCPSCDKRFPFGGIVSSNYYRVSYNGLQCKHCEQLFTPLQLTSQIEHSIRAHISLYYAGWLQCDDSTCGIVTRQVSVFGKRCLNDGCTGVMRYKYSDKQLYNQLLYFDSLFDCEKNKKQELKPIYLPDDLDYPKEQLTESSIKALTEQNRELMETGRSVVQKYLNDCGRRYVDMTSIFDFMLN	soluble
MNVFQMRDKLKARLKHLDVEFKFDREEETLRIVRIDNHKGVTIKLNAIVAKYEEQKEKIIDEICYYVEEAIAQMGDEVINNVEDIQIMPVIRATSFDKETKEGHAFVLTEHTAETNIYYALDLGKSYRLIDENMLQTLNLTAQQVKEMSLFNVRKLECRYSTDEVKGNIFYFINTNDGYDASRILNTSFLNHIQHQCEGEMLVGVPHQDVLILADIRNKTGYDVMAHLTMEFFTKGLVPITSLSFGYDNGHLEPIFILGKNNKQK	not soluble
MKTGDKAGAIAAAQYFVEVIEYSMHTSTTDLLEKYSYEHCDRCSHYIEVINTRQEKNVLPKSVVINSSQEGHPEFRGEGAIIWRVPMHLQISEQWEAGKEPRKEEVKVSFSVAIDNGHWVLVGVGEED	not soluble
TNVISTLDLNLLTKGGGSWNVDGVNMKKSAVTTFDGKRVVKAVYDKNSGTSANPGVGGFSFSAVPDGLNKNAITFAWEVFYPKGFDFARGGKHGGTFIGHGAASGYQHSKTGASNRIMWQEKGGVIDYIYPPSDLKQKIPGLDPEGHGIGFFQDDFKNALKYDVWNRIEIGTKMNTFKNGIPQLDGESYVIVNGKKEVLKRINWSRSPDLLISRFDWNTFFGGPLPSPKNQVAYFTNFQMKKYELEHHHHHH	soluble
MSIQQIIEQKIQKEFQPHFLAIENESHLHHSNRGSESHFKCVIVSADFKNIRKVQRHQRIYQLLNEELNHSIHALALHLFTPEEWKAQNETVPHSTKCAGIGRLEHHHHHH	soluble
EKFRWFISSEGFLVIGGKDATTNEIVVRKYLEENDLYCHADIWGAPHVVIKDGQKAGEKTIFEACQFAVSMSRAWSEGLYSADAYWVYPNQVKKQAPSGEFLPK	not soluble
MGSDKIHHHHHHMARVAINGFGRIGRLVYRIIYERKNPDIEVVAINDLTDTKTLAHLLKYDSVHKKFPGKVEYTENSLIVDGKEIKVFAEPDPSKLPWKDLGVDFVIESTGVFRNREKAELHLQAGAKKVIITAPAKGEDITVVIGCNEDQLKPEHTIISCASCTTNSIAPIVKVLHEKFGIVSGMLTTVHSYTNDQRVLDLPHKDLRRARAAAVNIIPTTTGAAKAVALVVPEVKGKLDGMAIRVPTPDGSITDLTVLVEKETTVEEVNAVMKEATEGRLKGIIGYNDEPIVSSDIIGTTFSGIFDATITNVIGGKLVKVASWYDNEYGYSNRVVDTLELLLKM	not soluble
MNNKNLALKAPLSGPVMPLNRVPDPVFSSGTLGEGIAIDPLNDCLHAPCAGLVSHLARTRHALSLRADNGAELLLHVGLDTVQLQGEGFEALVEEGARVIEGQPLLRFDLDRVARGSRSLITVMILTNGDGFQVRPLTTNPVEVGAPLLQLSPEKAEQRPANPAPGEGSAQRQVRGRARVAHHGGLHARPAALLRKTAQGFSSQAELHFAGQVASVDSLVGIMGLGVAEQDEVEVICRGEDSEAALGALLAALASATAGAPKDAPRAIAPGEPARPAAVAGTLAGVCASPGLASGPLARLGAISLPADDGRHRPEEQHLALDQALQRVRDDVQGSLQQARLGGDENEAAIFSAHLALLEDPGLLDAADMLIDQGVGAAHAWHRAIQAQCEILQALGNLLLAERANDLRDLEKRVLRVLLGDTAPLRVPAGAIVAAREITPSDLAPLVDAGAAGLCMAEGGATSHVAILARSKGLPCLVALGAGLLELEEGRQVVLDAGQGRLELSPDARRLEQVALQVAQREEQRRRQQADAQREALTRDGRRIEIGANVASPREAAEAFANGADGVGLLRTEFLFLERRAAPDEEEQRNAYQEVLDAMGQRKVIIRTIDVGGDKHLDYLPLPVEENPALGLRGIHLGQARPELLDQQLRALLRVEPLERCRILLPMVSEVDELRAIRRRLGELATQLGIERLPELGVMIEVPSAALLADQLAEHADFLSIGTNDLSQYALAMDRCHAGLADRIDALHPALLRLIAQTCAGAARHGRWVGVCGALASDPLATPVLVGLGVEELSVGPNLVGEIKTRVRQLDAAECRRHAQALLDLGSARAVRDACLQ	not soluble
MMITSVEKDTKNRGMLSVFIDEKYAFSIPEEDYFRLCLYDKKELSSDEIEEIKKGVSQRTAKYKAVKYLSYRYMTEAELSQKLRKDGYDEDVILNVVTELKSMGYINDLIYAQKYVYDRIKLKPKAKKMLKRELNQKGVSDEIADQVLSELDFDEDVVIERLIRKKFGKYDMKDPKIQKRIYSFLLHRGFDFENIKRVLRTITHLD	soluble
SNEVKESLRSIEQKYKLFQQQQFTFIAALEHCRENAHDKIRPISSIEQVQSYMEHYCNNSTHRRILIMFMDICSELSKLCQHFEALHSGTPVTNSLLEKCKTLVSQSNDLSSLRAKYPHEVVNHLSCDEARNHYGGVVSLIPIVLDFMKEWIAHSEKLPRKVLQHGTT	soluble
DILVFTPRKSDAGISVILYPGAFVDALSYAPLANKLASSGYKTYIAEMPLNLAVFGKNRAADIIDEAPDEKFVIGGHSLGGVMSSRFAHENESEIEGVFFLASYPDKKGSLKNASFPALSITGTKDDVLNKDAYDKNKKYLPKDTTFVSIEGGNHAQFGSYGAQHGDGKATISEAEQTDQVSNALIAWLNTSVKNQER	soluble
